Molecular target: GATA3, P23771-2
Sequence (P23771 other isoform, or with tags, fused parts or gaps): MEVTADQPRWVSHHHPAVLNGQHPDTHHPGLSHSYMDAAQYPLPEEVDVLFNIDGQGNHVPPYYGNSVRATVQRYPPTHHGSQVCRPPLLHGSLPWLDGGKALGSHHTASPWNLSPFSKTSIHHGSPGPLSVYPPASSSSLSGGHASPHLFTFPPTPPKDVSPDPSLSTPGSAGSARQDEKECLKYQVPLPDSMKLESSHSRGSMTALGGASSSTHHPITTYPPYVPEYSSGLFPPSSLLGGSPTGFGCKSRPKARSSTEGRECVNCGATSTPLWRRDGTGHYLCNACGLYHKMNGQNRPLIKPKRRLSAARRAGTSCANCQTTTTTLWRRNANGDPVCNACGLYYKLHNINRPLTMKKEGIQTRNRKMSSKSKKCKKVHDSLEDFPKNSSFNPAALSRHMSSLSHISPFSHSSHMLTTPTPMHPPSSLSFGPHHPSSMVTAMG

Row | Substance | effect of a mutation on the interaction
1 | Transcription factor SOX-4 (Mus musculus), Q06831 R61A;P62A | decreasing interaction
2 | Transcription factor SOX-4 (Mus musculus), Q06831 F66A;M67A | decreasing interaction

Reference: IntAct's records for PubMed 22751141
